Experimental data published in the DeepSol protein solubility set.

Assay: soluble on expression in E. coli; label from the status in PepcDB or PDB records

| Sequence | soluble on expression in E. coli |
| --- | --- |
| ASYWSLQDILLRQGYRENLHPDDLIEGYRELLADSVHRCLQSDVEVGLFLSGGIDSAAVAHFAAEKQDLHTFTVLSQSTFTNEDAKYAHWLAKDLHLPNHQVLYQLGNDELLQPESYKHLLWICETPFCGPEQLYKFHLHKYAKAIRPNLKVMLTGQGSDEFNGGYSTTLSPAENPSWEGFIESVNTMEMNRLHRLQGNIFRVWEEHFGLSPINLSYLKSNDSSQADPWQSYVLTKYRDLQMYNCWHEDRIAAANHIENRVPFLDHRLVEWVCGIPDGLRKDLLWDKSVLRKSLTNELHTSYTHRPKVPFFYGKDVRYTHKMMFHLLKKNNYQLIEEAFSHSDASSIIQVEHIHAIM | not soluble |
| ATGDTAATAAPAKAEKTAGSVLRDAKRVIIVPGYGMALAQAQHQVRQLADKLTANGTEVRYAIHPVAGRMPGHMNVLLCEADVPYDQLFEMDAINGDFAQTDAVVVIGANDVMNPAARNAEGTPIYGMPVLNVDDAPEVIICNFDLKPGYAGVDNPLYTRATGVFLKLGDAKESLAEIMKEMDIA | not soluble |
| ATPALRFVAVGDWGGVPNAPFHTAREMANAKEIARTVQILGADFILSLGDNFYFTGVQDINDKRFQETFEDVFSDRSLRKVPWYVLAGNHDHLGNVSAQIAYSKISKRWNFPSPFYRLHFKIPQTNVSVAIFMLDTVTLCGNSDDFLSQQPERPRDVKLARTQLSWLKKQLAAAREDYVLVAGHYPVWSIAEHGPTHCLVKQLRPLLATYGVTAYLCGHDHNLQYLQDENGVGYVLSGAGNFMDPSKRHQRKVPNGYLRFHYGTEDSLGGFAYVEISSKEMTVTYIEASGKSLFKTRLPRRARP | soluble |
| ATQGRLRRRPEGARVPSARRGRPRARWRAPQNNPEVDSIMAELKVEAPASVDWQKRCLTLETQLFRFRLQASKIRELLADKMQELEQRLLEAEQRAENAETQVGVMEEKVKLSNLKNVDSEGSLHRKYQELLKAIKGKDELISQLEAQLEKQKQMRAEEAKTVQEKAAKIKEWVTLKLAKLEMENQHLKSHNQRLVEQVGSLQDALEAIQIAPSRKLLVPPYGAAEQDSVPSEPGIQPMGQDSGSQAQGLKAAVLAPSPGALQSKDSVSEAASPLEDSSSSTVHSGETVEAKPLQPHLGRESPPHQPCMKLLTFRCSSASWGEGLVTAQRGMLPGTKTSAREGGPGSSLTLPKVRAPGTPRDSIQLAKRHHSQPQVGHGHFGRVVNIETEAFSALHPSGLPELESRARSREEPEKMEMEEPPPAGKNEERESPKALGAELEEVELGNKPPTPPLHQFSSWESRIYAVATSGMRLSDMSPRSNTACCASSPPALVSPGSFSGLVYKNVTVPVYTALKGRATQISNMPFMDESSGSDDDCSSQASFRISVPSSESRKTSGLGSPRAIKRGVSMSSLSSEGDYAIPPDACSLDSDYSEPEHKLQRTSSYSTDGLGLGGESLEKSGYLLKMGSQVKTWKRRWFVLRQGQIMYYKSPSDVIRKPQGQVDLNSRCQIVRGEGSQTFQLISEKKTYYLTADSPSLLEEWIRVLQSLLKVQATGPPALLRGGTKPTVKGWLTKVKHGHSKVVWCALVGKIFYYYRSHEDKRPLGCLPVRDAHIEEVDRSCDSDEDYEAGGTRRLLSSHCTLVIHPTEHSPTYLLIGTKHEKDTWLYHLTVAAGGSSAKVGTAYEQLIGKLMDGEGDPDSPLWRHPMLCYSKDGLYASLTTLPSEALQTEALKLFKSCQLFINVPVEAASVDYHVSLAQTALQVCLVHPELQSEIYCQLMKQTSCRPPQKYSLMQCWQLLALCAPLFLPQHHFLWYVKQQLQRHADPRSETGQYATYCQRAVERTLRTGEREARPSRMEVVSILLRNPFHHSLPFSIPVHFTNGTYHVVGFDGSSTVDEFLQRLNQEIGMRKPSHSGFALFTDDPSGRDLEHCLQGSVKICDAISKWEQAMKELHPGKSEGGTRVVKLMYKNRLYFRSQVKGETDRERLLLASQTSREIVAGRFPINKELALEMAALMAQVEYGDLEKPALPGPGGTSPAKAQHLLQQVLDRFHPRRYRHGAPAEQLRHLADMLTTKWATLQGCSPPECIRIYLTVARKWPFFGAKLFAAQPAQLSSKENALVWIAVNEDGVSILDHNTMQVHITYPYSSVTTFGGCRDDFMLVIRSIPDKSSGKSHIEKLIFRMAAPKIAEATFIMASYMNHCTTTVNPPTNPPGACQLWELDGRQFFSSVSCATKGPTLL | soluble |
| ATRRRSLSCYVWIATFGMRYTHEFNKVIRDYVRGHASQIRKRLLPKALEVFASHRIAGDCVVVATGAPPELVREILALVADQQEVVPVIGSSIVPRLGAIIVARHCHHEEKMRMLREQGYGDVAVAYSDSTADLPLLMAAKVPVVVNPKPKREKLFRRVLQP | not soluble |
| ATTGTQGYTVVKNDWKKAVKQLQDGLKDNSIGKITVSFNDGVVGEVAPKSANKKADRDAAAEKLYNLVNTQLDKLGDGDYVDFSVDYNLENKIITNQADAEAIVTKLNSLNEKTLIDIATKDTFGMVSKTQDSEGKNVAATKALKVKDVATFGLKSGGSEDTGYVVEMKAGAVEDKYGKVGDSTAGIAINLPSTGLEYAGKGTTIDFNKTLKVDVTGGSTPSAVAVSGFVTKDDTDLAKSGTINVRVINAKEESIDIDASSYHMSLEHHHHHH | soluble |
| ATTYNAVVSKSSSDGKTFKTIADAIASAPAGSTPFVILIKNGVYNERLTITRNNLHLKGESRNGAVIAAATAAGTLKSDGSKWGTAGSSTITISAKDFSAQSLTIRNDFDFPANQAKSDSDSSKIKDTQAVALYVTKSGDRAYFKDVSLVGYQATLYVSGGRSFFSDCRISGTVDFIFGDGTALFNNCDLVSRYRADVKSGNVSGYLTAPSTNINQKYGLVITNSRVIRESDSVPAKSYGLGRPWHPTTTFSDGRYADPNAIGQTVFLNTSMDNHIYGWDKMSGKDKNGNTIWFNPEDSRFFEYKSYGAGATVSKDRRQLTDAQAAEYTQSKVLGDWTPTLP | soluble |
| AVSFIGSTENDVGPSQGSYSSTHAMDNLPFVYNTGYNIGYQNANVWRISGGFCVGLDGKVDLPVVGSLDGQSIYGLTEEVGLLIWMGDTNYSRGTAMSGNSWENVFSGWCVGNYVSTQGLSVHVRPVILKRNSSAQYSVQKTSIGSIRMRPYNGSSAGSVQTTVNFSLNPFTLNDTVT | soluble |
| AYPHIFGNLGVFSLASWFSERDFLRFLNHHPLDKNSKVFIQVGTKEGDAVDDEFAPNMNQAYIDCTLHYYQSLLRTGHPMEHIDLHIMANEIHHEKYWANHFIEFLKFTLK | not soluble |
| CIGLVNPKTPENVGSVMRAAGCYGVNSVFYTGKRYDIAKQFCTDTKSQHLNLPLIGVEDLRDIVPLDCVPVAVDLIEGAKPLPDYKHPPRAFYIFGPEDGTLKKEITDFCRETIYVPTNGCMNLAAAVNVIMYDRMAK | not soluble |
| CPECDEPLHYIRDAVSEKLEYIPAHFVVNRYVRPQYSCPCCQKVFSGEMPAHILPKSAVEPSVIAQVIINKYGDHLPLYRQQQVFARSDVGLPVSSMADMVGAAGAALSPLAALLHRELINRPVVHADETTLKILNTKKGGKSCSGYLWAYVSGERTGPSVVCFDCRTGRSHEYPENWLQGWGGTLVVDGHKAYRTLANKV | not soluble |
| DAAVTPEERHLSKMQQNGYENPTYKFFEQMQNSGPSSGIEGRGSSGSSGSSGSSGPTPKTELVQKFRVQYLGMLPVDRPVGMDTLNSAIENLMTSSSKEDWPSVNMNVADATVTVISEKNEEEVLVECRVRFLSFMGVGKDVHTFAFIMDTGNQRFECHVFWCEPNAANVSEAVQAAC | soluble |
| DDRGDFALVAGDALPQFSVEMSDGGVLNTQSFSGKVGVIVFFHTDCPDCQKELPVIQKVYDTYKENPDVLLSCISRSESGSEVQAYWEKHSFSLPFSAQNDDAVFSLFASHTIPRILITDKEGIIRAVYTDDPLATYQELAKDIDAVL | soluble |
| DDVPPRIARAMENEEYWDFDIFELEAATHNRPLIYLGLKMFARFGICEFLHCSESTLRSWLQIIEANYHSSNPYHNSTHSADVLHATAYFLSKERIKETLDPIDEVAALIAATIHDVDHPGRTNSFLCNAGSELAILYNDTAVLESHHAALAFQLTTGDDKCNIFKNMERNDYRTLRQGIIDMVLATEMTKHFEHVNKFVNSINKPLATLEENGETDKNQEVINTMLRTPENRTLIKRMLIKCADVSNPCRPLQYCIEWAARISEEYFSQTDEEKQQGLPVVMPVFDRNTCSIPKSQISFIDYFITDMFDAWDAFVDLPDLMQHLDNNFKYWKGLDEM | soluble |
| DEIVMDANAVLGPVDPQLGNFPAASILKVVKDKPIGEIDDQTLIMADLAGKAIQQVQRFVRTLLKDNIPKQKVNPENIESIIEALTTGRVTHDYPITVEEATEMGLPITVGLPRSIYELMDLYPQSQGGRPSVQYIPMPYDDRRPIL | not soluble |
| DERLLAREVQKMRFRRSTYSSPQPATQQPANGSERKNDSDNLVGAENHSAETPTDNRSAEVEQPYYPAKYEEELLRLIIRYGERKLLIYRHEEGAEKQTPSEVALAYYIKSDLNADGVDIGTDVFRQILDEAAEQSFDSGFVAAKYFRDHPNAQISHIAVELLTNRYALSRIHYGKGDESNAEEDLQMRVERELLTIKNVFIQVQIRALQKEIAQAQKAGDIELQLEIMNELRSMNEMKSELAHRLGDRTVLP | not soluble |
| DFEVGDKIRILATLEDGWLEGSLKGRTGIFPYRFVKLCPDTRVEETMALPQEGSLARIPETSLDCLENTLGVEEQRHETSDHEAEEPDCIISEAPTSPLGHLTSEYDTDRNSYQDEDTAGGPPRSPGVEWEMPLATDSPTSDPTEVVNGISSQPQVPFHPNLQKSQYYSTVGGSHPHSEQYPDLLPLEARTRDYASLPPKRMYSQLKTLQKPVLPLYRGSSVSASRVVKPRQSSPQLHNLASYTKKHHTSSVYSISERLEMKPGPQAQGLVMEAATHSQGDGSTDLDSKLTQQLIEFEKSLAGPGTEPDKILRHFSIMDFNSEKDIVRGSSKLITEQELPERRKALRPPPPRPCTPVSTSPHLLVDQNLKPAPPLVVRPSRPAPLPPSAQQRTNAVSPKLLSRHRPTCETLEKEGPGHMGRSLDQTSPCPLVLVRIEEMERDLDMYSRAQEELNLMLEEKQDESSRAETLEDLKFCESNIESLNMELQQLREMTLLSSQSSSLVAPSGSVSAENPEQRMLEKRAKVIEELLQTERDYIRDLEMCIERIMVPMQQAQVPNIDFEGLFGNMQMVIKVSKQLLAALEISDAVGPVFLGHRDELEGTYKIYCQNHDEAIALLEIYEKDEKIQKHLQDSLADLKSLYNEWGCTNYINLGSFLIKPVQRVMRYPLLLMELLNSTPESHPDKVPLTNAVLAVKEINVNINEYKRRKDLVLKYRKGDEDSLMEKISKLNIHSIIKKSNRVSSHLKHLTGFAPQIKDEVFEETEKNFRMQERLIKSFIRDLSLYLQHIRESACVKVVAAVSMWDVCMERGHRDLEQFERVHRYISDQLFTNFNGQKS | soluble |
| DKSNKLQNLVAEQLVGCGFNEILNNSLTRAAYYDGLESYPSKNLVMLLNPLSADLNCMRQTLLFGGLESIAHNANRKNADLKFFEFGNCYHFDAEKKNPEKVLAPYSEDYHLGLWVTGKMVSNSWAHADENTSVYELKAYVENIFKRLGLDLHSLVVGNLSDDIYSTALTVNTKGGKRLATFGVVTKKMLKAFDVDNEVYYADLNWKELM | soluble |
| DKTVKRAVPFKIIKMIKELDLSFEPQLELARDIFLFSFYTRGMSFIDMAHLKKSNLQNGILTYSRKKTGQRLTILWEELMQEIVDKYKDDTSEYLLPILRYCDINDRKQYKLRAKQIGRGLNKIGLRLELKAPLTFYVARHSWASIAQDRKVSTDIIREGLGHDNEKTTHIYLASISTSQIDRANQIILRGL | soluble |
| DMKPNSTKIGVAEATDAALIQALQQRQVFTKTTQPTLSWEQYLELNLNSKSKRLALCNKLHLSYFNHKQLFRKLNLLQLTFDQVCQLLK | not soluble |
